± gives the standard deviation of the averaged measurements.

The data set has as its system Saccharomyces cerevisiae. Nature of the data set: protein stability index of tFT-peptide fusion (C-terminal peptide) (PSI (0-1 scale)); higher = more stable (slower turnover). Particulars: temperature: 30 C. The protocol:
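MPS profiling in S. cerevisiae of the yeast C-terminome library: the last 12 aa of each annotated ORF are fused to the C-terminus of a sfGFP-mCherry timer, after a GGGS linker. Cells are FACS-sorted into 8 mCherry/sfGFP bins and deep-sequenced. PSI runs from 0 (unstable) to 1 (stable); wild type and das1Δ backgrounds, two technical replicates each.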

Where [1] appears, read: genetic background: das1 deletion.

With TAFLNKVYKRSK [ERG20 C-terminal 12 aa], the protein stability index stood at 0.692 ± 0.007 under setting [1] and 0.693 ± 0.043 (genetic background: wild type).

With TANKVELMANIV [MAK31 C-terminal 12 aa], the protein stability index under setting [1] came out at 0.6683 ± 0.0035 and the protein stability index (genetic background: wild type) was 0.686 ± 0.041.

Consider TASFAGSKKTFD [NSR1 C-terminal 12 aa], for which the protein stability index amounted to 0.706 ± 0.023 under setting [1] and 0.678 ± 0.012 (genetic background: wild type).

As to TDDKEKLLKTLK [ACC1 C-terminal 12 aa], the protein stability index runs as follows: under setting [1], 0.698 ± 0.016; (genetic background: wild type) 0.734 ± 0.023.

With TDFENPNFRYTL [DAL5 C-terminal 12 aa], the protein stability index by setting is: under setting [1], 0.756 ± 0.039; (genetic background: wild type) 0.794 ± 0.12.

In the case of TDLPKWAQLDNS [PUS6 C-terminal 12 aa], the protein stability index was found to be 0.729 ± 0.028 under setting [1] and 0.702 ± 0.026 (genetic background: wild type).

For TFCVYENLKHRL [FLX1 C-terminal 12 aa], the protein stability index came to 0.741 ± 0.019 under setting [1] and 0.726 ± 0.017 (genetic background: wild type).

As to TGGCSSSKFSLS [SKN1 C-terminal 12 aa], the protein stability index by setting is: under setting [1], 0.692 ± 0.021; (genetic background: wild type) 0.68965 ± 0.00013.

As to THFFSIEWAGFG [SEN34 C-terminal 12 aa], the protein stability index under setting [1] is 0.7116 ± 0.0045 and the protein stability index (genetic background: wild type) came out at 0.725 ± 0.041.

For TIAAGKISEITQ [HBS1 C-terminal 12 aa], the protein stability index came to 0.7292 ± 0.0066 under setting [1] and 0.697 ± 0.01 (genetic background: wild type).

In the case of TIEEVKIPGLDI [MRPL50 C-terminal 12 aa], the protein stability index was 0.701 ± 0.0088 under setting [1] and 0.711 ± 0.0074 (genetic background: wild type).

Consider TISNWIQETKEV [STO1 C-terminal 12 aa], for which the protein stability index under setting [1] is 0.70591 ± 0.00011 and the protein stability index (genetic background: wild type) was determined as 0.7293 ± 0.0034.

In turn, TKARTLGEGSVN [YDR476C C-terminal 12 aa] registered a protein stability index under setting [1] of 0.686 ± 0.032 and a protein stability index (genetic background: wild type) of 0.674 ± 0.021.

Consider TKGEVATKPASY [MGA1 C-terminal 12 aa], for which the protein stability index stood at 0.702 ± 0.014 under setting [1] and 0.703 ± 0.018 (genetic background: wild type).

With TKHTPKYLLNTI [YNL179C C-terminal 12 aa], the protein stability index is, setting by setting: under setting [1], 0.6926 ± 0.0048; (genetic background: wild type) 0.6621 ± 0.00097.

As for TKRLRKNKCIIM [RHO4 C-terminal 12 aa], the protein stability index reads like this: under setting [1], 0.743 ± 0.0024; (genetic background: wild type) 0.702 ± 0.024.

For TKYKTVTVTAKT [YMR244W C-terminal 12 aa], the protein stability index is 0.652 ± 0.014 under setting [1] and 0.71 ± 0.034 (genetic background: wild type).

TNGITTERHKKK [NTG2 C-terminal 12 aa]: the protein stability index came out at 0.714 ± 0.0084 under setting [1] and 0.668 ± 0.028 (genetic background: wild type).

On to TNTVPATSASSK [RGC1 C-terminal 12 aa], for which the protein stability index is, setting by setting: under setting [1], 0.68862 ± 0.00043; (genetic background: wild type) 0.701 ± 0.04.

TNWGQHKTVQNT [PPE1 C-terminal 12 aa] showed a protein stability index under setting [1] of 0.698 ± 0.024 and a protein stability index (genetic background: wild type) of 0.713 ± 0.019.

For TNYEVTDTYTNS [SOM1 C-terminal 12 aa], the protein stability index under setting [1] worked out at 0.7107 ± 0.0011 and the protein stability index (genetic background: wild type) amounted to 0.712 ± 0.017.

Take TPRLYTDRSRDF [RPB2 C-terminal 12 aa]: the protein stability index stood at 0.743 ± 0.0033 under setting [1] and 0.713 ± 0.013 (genetic background: wild type).

Consider TPSEDDDGAVEI [LSM3 C-terminal 12 aa], for which the protein stability index reads like this: under setting [1], 0.688 ± 0.0068; (genetic background: wild type) 0.749 ± 0.062.

Regarding TPTDSTPTKKDI [LAC1 C-terminal 12 aa], the protein stability index reads like this: under setting [1], 0.6941 ± 0.0027; (genetic background: wild type) 0.725 ± 0.019.

As for TRKKGGRRGRRL [RPS14A C-terminal 12 aa], the protein stability index is, setting by setting: under setting [1], 0.711 ± 0.011; (genetic background: wild type) 0.676 ± 0.011.

On to TRMSSPPPSTSS [SET2 C-terminal 12 aa], for which the protein stability index reads like this: under setting [1], 0.695 ± 0.023; (genetic background: wild type) 0.6896 ± 0.0047.

Take TSDQKNKRTQFS [RPB9 C-terminal 12 aa]: the protein stability index is 0.6969 ± 0.0066 under setting [1] and 0.667 ± 0.07 (genetic background: wild type).

Consider TVFETLTLHSAN [JSN1 C-terminal 12 aa], for which the protein stability index was determined as 0.725 ± 0.024 under setting [1] and 0.68218 ± 0.00033 (genetic background: wild type).

As for TVGYGILKVMGF [PHO91 C-terminal 12 aa], the protein stability index by setting is: under setting [1], 0.659 ± 0.012; (genetic background: wild type) 0.656 ± 0.009.

Turning to TVSLPSRYSRYN [ALR2 C-terminal 12 aa], the protein stability index worked out at 0.6976 ± 0.0014 under setting [1] and 0.684 ± 0.033 (genetic background: wild type).

With “VAKKRLSSRSKP [YNL162W-A C-terminal 12 aa]”, the protein stability index under setting [1] was determined as 0.715 ± 0.05 and the protein stability index (genetic background: wild type) worked out at 0.658 ± 0.02.

Regarding VARYKMVSKRIW [EMP65 C-terminal 12 aa], the protein stability index is 0.717 ± 0.011 under setting [1] and 0.654 ± 0.018 (genetic background: wild type).

In turn, VDIPVDVKKLQI [BUL2 C-terminal 12 aa] gave a protein stability index under setting [1] of 0.723 ± 0.035 and a protein stability index (genetic background: wild type) of 0.696 ± 0.018.

For the sequence VDMKWGSFPIFQ [YPR1 C-terminal 12 aa], the protein stability index under setting [1] came out at 0.7256 ± 0.0028 and the protein stability index (genetic background: wild type) came out at 0.7 ± 0.027.

As to “VDSEGQIRYAKE [YCR087C-A C-terminal 12 aa]”, the protein stability index stood at 0.673 ± 0.028 under setting [1] and 0.6705 ± 0.0015 (genetic background: wild type).

VEIPTVESTKSG [RNA14 C-terminal 12 aa] gave a protein stability index under setting [1] of 0.696 ± 0.021 and a protein stability index (genetic background: wild type) of 0.7544 ± 0.0014.

Regarding “VEPVYLCASLSL [YCR047W-A C-terminal 12 aa]”, the protein stability index reads like this: under setting [1], 0.666 ± 0.027; (genetic background: wild type) 0.6733 ± 0.00078.

For VFEVFSRMDMLL [VPS74 C-terminal 12 aa], the protein stability index under setting [1] is 0.7149 ± 0.0058 and the protein stability index (genetic background: wild type) was 0.773 ± 0.027.

Regarding VFGGCATTWIVL [ATS1 C-terminal 12 aa], the protein stability index reads like this: under setting [1], 0.6971 ± 0.0038; (genetic background: wild type) 0.692 ± 0.0096.

Consider VFLELKKAQRWA [API2 C-terminal 12 aa], for which the protein stability index is, setting by setting: under setting [1], 0.703 ± 0.019; (genetic background: wild type) 0.686 ± 0.011.

Take VFNDIFRLNYSA [NTF2 C-terminal 12 aa]: the protein stability index reads like this: under setting [1], 0.7108 ± 0.0032; (genetic background: wild type) 0.504 ± 0.0084.

On to VFPETDSIFEPV [RAF1 C-terminal 12 aa], for which the protein stability index amounted to 0.733 ± 0.022 under setting [1] and 0.715 ± 0.0081 (genetic background: wild type).

In turn, VGKKLETFKKTN [WBP1 C-terminal 12 aa] registered a protein stability index under setting [1] of 0.717 ± 0.0088 and a protein stability index (genetic background: wild type) of 0.48 ± 0.019.

In the case of “VGRHSSRLMCPG [YBR126W-B C-terminal 12 aa]”, the protein stability index reads like this: under setting [1], 0.6932 ± 0.0053; (genetic background: wild type) 0.689 ± 0.022.

For VHAENTTLREIL [CDC50 C-terminal 12 aa], the protein stability index turned out to be 0.706 ± 0.036 under setting [1] and 0.7076 ± 0.0047 (genetic background: wild type).

With VHLEKKKDEDKK [UBX7 C-terminal 12 aa], the protein stability index by setting is: under setting [1], 0.67376 ± 4e-05; (genetic background: wild type) 0.668 ± 0.021.

VIIVPIAVHFSR [SNC1 C-terminal 12 aa] returned a protein stability index under setting [1] of 0.561 ± 0.024 and a protein stability index (genetic background: wild type) of 0.581 ± 0.0095.

In the case of VILSETVVILYY [YKR032W C-terminal 12 aa], the protein stability index reads like this: under setting [1], 0.346 ± 0.014; (genetic background: wild type) 0.345 ± 0.0067.

As to VKFGLQMAYLQS [YMR007W C-terminal 12 aa], the protein stability index runs as follows: under setting [1], 0.7023 ± 0.005; (genetic background: wild type) 0.6586 ± 0.0059.

Regarding VLGDVIKIAQRL [HOM6 C-terminal 12 aa], the protein stability index by setting is: under setting [1], 0.728 ± 0.008; (genetic background: wild type) 0.747 ± 0.031.

For VLSNNVPYTQPR [RCH1 C-terminal 12 aa], the protein stability index reads like this: under setting [1], 0.703 ± 0.029; (genetic background: wild type) 0.745 ± 0.054.

Take VLYIILYYIILY [YGL024W C-terminal 12 aa]: the protein stability index was determined as 0.282 ± 0.02 under setting [1] and 0.181 ± 0.035 (genetic background: wild type).

With VMQELRKLKNAM [GLO4 C-terminal 12 aa], the protein stability index amounted to 0.709 ± 0.018 under setting [1] and 0.64 ± 0.025 (genetic background: wild type).

Take VMSLYNLACKYI [SAM37 C-terminal 12 aa]: the protein stability index came out at 0.797 ± 0.013 under setting [1] and 0.577 ± 0.056 (genetic background: wild type).

As to VNELVELMTQSA [SEC18 C-terminal 12 aa], the protein stability index reads like this: under setting [1], 0.675 ± 0.015; (genetic background: wild type) 0.695 ± 0.014.

For the sequence VNERSHDVKFTK [YIL165C C-terminal 12 aa], the protein stability index by setting is: under setting [1], 0.686 ± 0.006; (genetic background: wild type) 0.689 ± 0.01.

Regarding VNHSFEFNDVLQ [IFH1 C-terminal 12 aa], the protein stability index came to 0.686 ± 0.014 under setting [1] and 0.738 ± 0.025 (genetic background: wild type).

In the case of VPGGKKTPTEAL [LSM5 C-terminal 12 aa], the protein stability index amounted to 0.6817 ± 0.0014 under setting [1] and 0.707 ± 0.026 (genetic background: wild type).

In the case of VPQLHSFIAKEQ [RMD9 C-terminal 12 aa], the protein stability index by setting is: under setting [1], 0.699 ± 0.017; (genetic background: wild type) 0.3 ± 0.0037.

Take VPSLLILSVFFS [YPS3 C-terminal 12 aa]: the protein stability index under setting [1] was 0.27 ± 0.03 and the protein stability index (genetic background: wild type) was found to be 0.273 ± 0.012.

With VQEWEVLGRVDV [CPD1 C-terminal 12 aa], the protein stability index is 0.724 ± 0.014 under setting [1] and 0.692 ± 0.022 (genetic background: wild type).

In turn, VQQMVEMQGKMR [SGM1 C-terminal 12 aa] registered a protein stability index under setting [1] of 0.71134 ± 0.00034 and a protein stability index (genetic background: wild type) of 0.68508 ± 0.00063.

On to VSDSSYDEYSNE [SYT1 C-terminal 12 aa], for which the protein stability index amounted to 0.679 ± 0.021 under setting [1] and 0.672 ± 0.03 (genetic background: wild type).

As for VSKTYEEHIETV [JEN1 C-terminal 12 aa], the protein stability index was determined as 0.688 ± 0.023 under setting [1] and 0.692 ± 0.013 (genetic background: wild type).

Consider VSNASNGCVLDA [ILV3 C-terminal 12 aa], for which the protein stability index by setting is: under setting [1], 0.70459 ± 3.7e-05; (genetic background: wild type) 0.707 ± 0.013.

Turning to VTSGKAHFVLYN [SIM1 C-terminal 12 aa], the protein stability index reads like this: under setting [1], 0.695 ± 0.017; (genetic background: wild type) 0.655 ± 0.017.

As for VVERTRQAHFAI [YEF1 C-terminal 12 aa], the protein stability index was 0.676 ± 0.023 under setting [1] and 0.6752 ± 0.0036 (genetic background: wild type).

The values above are taken from the supplement of paper PMC10724198.
